Where no end group is shown, it is not given here.
Tests used:
human P-selectin/IgG-Fc = molecular target: T1, human P-selectin/IgG-Fc (Homo sapiens, UniProt P16109); test: Competition assay: displacement of TM11-PO complex from immobilised human P-selectin/IgG-Fc; assay type: binding; settings: competition with TM11-PO; free peptide; read-out: IC50 (affinity for P-selectin)
T1 construct: purchased R&D Systems Europe Ltd., Abingdon, United Kingdom
Procedure: (§1) TM11-PO, a tetrameric TM11/strepPO complex described by Molenaar et al. (Blood 100: 3570-3577 (2002)), was freshly prepared by incubating streptavidin-peroxidase (Amersham Life Science, Little Chalfont, United Kingdom) (strep-PO; 8.4 μl, 2.0 μM) and biotin-CDVEWVDVSSLEWDLPC (SEQ ID NO: 2; synthesized by Dr. Vander Zee, Department of Immunology, University of Utrecht, Utrecht, the Netherlands) (TM11-biotin; 1.5 μl 190 mM) for 2 hours at room temperature in assay buffer (20 mM HEPES, 150 mM NaCl, 1 mM CaCl2, pH 7.4). For competition studies, a 96 wells microtiter plate (high binding, flat bottom, Costar, Corning, U.S.A) was coated overnight at 4° C. with 10 μg/ml goat anti-human IgG (Sigma-Aldrich, Zwijndrecht, the Netherlands) in coating buffer (50 mM NaHCO3, pH 9.6). Subsequently, wells were washed with assay buffer and incubated for 1 hour at 37° C. with blocking buffer (3% BSA in assay buffer). After washing with assay buffer the wells were incubated for 2 hours at 37° C. with human P-selectin/IgG-Fc (R&D Systems Europe Ltd., Abingdon, United Kingdom) (0.3 μg/ml). Subsequently, wells were washed with assay buffer and incubated for 1 hour at 4° C. with the TM11-PO complex. The wells were washed six times with washing buffer (0.1% Tween 20 in assay buffer). […] The reaction was halted by addition of 2 M H2SO4 and the absorbance was measured at 450 nm.

[1] = molecular target: T2, human P-selectin/IgG-Fc (R&D Systems) (human), P16109; test: competition ELISA against TM11-PO on captured human P-selectin/IgG-Fc
T2 chain: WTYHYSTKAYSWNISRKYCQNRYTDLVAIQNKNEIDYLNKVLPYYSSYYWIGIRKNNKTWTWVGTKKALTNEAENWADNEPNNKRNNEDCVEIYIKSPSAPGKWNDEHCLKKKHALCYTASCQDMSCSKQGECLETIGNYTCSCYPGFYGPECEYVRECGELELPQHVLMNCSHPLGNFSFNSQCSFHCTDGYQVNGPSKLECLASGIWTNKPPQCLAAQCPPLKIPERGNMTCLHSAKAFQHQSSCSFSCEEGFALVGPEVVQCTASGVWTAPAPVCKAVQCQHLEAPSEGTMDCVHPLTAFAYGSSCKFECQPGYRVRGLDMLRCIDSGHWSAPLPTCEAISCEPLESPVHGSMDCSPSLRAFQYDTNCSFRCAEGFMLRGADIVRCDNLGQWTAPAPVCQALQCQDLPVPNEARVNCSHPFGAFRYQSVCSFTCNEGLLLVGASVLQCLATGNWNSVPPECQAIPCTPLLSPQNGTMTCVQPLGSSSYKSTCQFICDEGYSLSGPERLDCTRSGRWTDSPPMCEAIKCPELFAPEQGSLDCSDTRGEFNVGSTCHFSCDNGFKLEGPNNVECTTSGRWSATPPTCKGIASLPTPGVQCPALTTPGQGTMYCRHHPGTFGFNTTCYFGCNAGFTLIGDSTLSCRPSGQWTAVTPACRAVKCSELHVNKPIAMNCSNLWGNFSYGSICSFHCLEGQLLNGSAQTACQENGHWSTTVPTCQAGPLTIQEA

[2] = molecular target: T3, human P-selectin/IgG-Fc (R&D Systems) (human, UniProt P16109 42-771); test: as above
T3 construct: It was captured on plates coated with goat anti-human IgG; not shown: IgG Fc; it was captured by goat anti-human IgG
T3 sequence (looked up): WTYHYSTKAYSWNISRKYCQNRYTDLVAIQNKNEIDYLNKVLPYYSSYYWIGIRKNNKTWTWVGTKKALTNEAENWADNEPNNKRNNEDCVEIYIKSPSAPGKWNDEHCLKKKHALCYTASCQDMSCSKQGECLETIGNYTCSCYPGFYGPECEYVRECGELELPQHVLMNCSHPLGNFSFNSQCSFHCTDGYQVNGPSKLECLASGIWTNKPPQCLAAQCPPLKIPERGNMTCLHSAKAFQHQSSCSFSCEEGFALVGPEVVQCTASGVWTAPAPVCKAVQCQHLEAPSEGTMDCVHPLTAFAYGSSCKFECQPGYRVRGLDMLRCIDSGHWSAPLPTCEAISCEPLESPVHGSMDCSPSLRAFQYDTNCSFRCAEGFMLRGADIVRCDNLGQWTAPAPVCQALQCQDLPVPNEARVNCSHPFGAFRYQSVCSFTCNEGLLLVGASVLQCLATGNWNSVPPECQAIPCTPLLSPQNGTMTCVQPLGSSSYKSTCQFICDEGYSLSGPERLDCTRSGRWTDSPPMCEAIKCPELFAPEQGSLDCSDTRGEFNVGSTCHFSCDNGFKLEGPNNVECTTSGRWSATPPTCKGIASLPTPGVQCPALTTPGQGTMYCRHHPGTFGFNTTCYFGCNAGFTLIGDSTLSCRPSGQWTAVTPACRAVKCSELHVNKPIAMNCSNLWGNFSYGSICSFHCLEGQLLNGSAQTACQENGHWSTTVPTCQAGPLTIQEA
Procedure: as §1, with “The affinity of the liposomal drug delivery system prepared in example 2 was evaluated using a competition assay. TM11-PO,” for “TM11-PO,”, “biotin-[…]” for “biotin-CDVEWVDVSSLEWDLPC”, “CaCl_2,” for “CaCl2,”, “NaHCO_3,” for “NaHCO3,”, “complex.” for “complex. The wells were washed six times with washing buffer (0.1% Tween 20 in assay buffer).”, “H_2SO_4” for “H2SO4”

[3] = molecular target: T4, human P-selectin on CHO cells stably transfected with human P-selectin (CHO-P cells) (human, UniProt P16109 42-830); test: cell-based or functional assay
T4 sequence (looked up): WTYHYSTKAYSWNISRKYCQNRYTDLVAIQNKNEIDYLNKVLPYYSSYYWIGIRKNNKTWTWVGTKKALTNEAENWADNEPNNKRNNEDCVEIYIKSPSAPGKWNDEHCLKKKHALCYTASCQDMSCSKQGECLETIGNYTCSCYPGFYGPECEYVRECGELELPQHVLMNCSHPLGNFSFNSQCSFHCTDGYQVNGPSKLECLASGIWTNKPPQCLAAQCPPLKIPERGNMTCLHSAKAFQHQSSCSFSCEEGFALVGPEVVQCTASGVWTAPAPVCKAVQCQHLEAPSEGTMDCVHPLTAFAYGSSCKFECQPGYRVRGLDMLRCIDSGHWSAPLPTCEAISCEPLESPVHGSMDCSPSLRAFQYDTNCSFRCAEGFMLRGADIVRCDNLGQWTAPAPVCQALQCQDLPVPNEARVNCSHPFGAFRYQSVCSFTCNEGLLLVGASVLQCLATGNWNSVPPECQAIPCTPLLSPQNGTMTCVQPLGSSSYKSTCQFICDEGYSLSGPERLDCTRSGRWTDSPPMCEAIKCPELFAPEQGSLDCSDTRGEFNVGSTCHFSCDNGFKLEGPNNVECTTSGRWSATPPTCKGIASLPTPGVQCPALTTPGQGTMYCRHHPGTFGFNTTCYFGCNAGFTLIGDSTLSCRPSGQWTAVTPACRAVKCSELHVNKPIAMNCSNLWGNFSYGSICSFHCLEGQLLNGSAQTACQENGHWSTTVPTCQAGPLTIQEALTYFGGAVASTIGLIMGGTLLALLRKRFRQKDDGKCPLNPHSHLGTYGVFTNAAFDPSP

T1 sequence (P16109 with tags, fused parts or gaps limits assumed): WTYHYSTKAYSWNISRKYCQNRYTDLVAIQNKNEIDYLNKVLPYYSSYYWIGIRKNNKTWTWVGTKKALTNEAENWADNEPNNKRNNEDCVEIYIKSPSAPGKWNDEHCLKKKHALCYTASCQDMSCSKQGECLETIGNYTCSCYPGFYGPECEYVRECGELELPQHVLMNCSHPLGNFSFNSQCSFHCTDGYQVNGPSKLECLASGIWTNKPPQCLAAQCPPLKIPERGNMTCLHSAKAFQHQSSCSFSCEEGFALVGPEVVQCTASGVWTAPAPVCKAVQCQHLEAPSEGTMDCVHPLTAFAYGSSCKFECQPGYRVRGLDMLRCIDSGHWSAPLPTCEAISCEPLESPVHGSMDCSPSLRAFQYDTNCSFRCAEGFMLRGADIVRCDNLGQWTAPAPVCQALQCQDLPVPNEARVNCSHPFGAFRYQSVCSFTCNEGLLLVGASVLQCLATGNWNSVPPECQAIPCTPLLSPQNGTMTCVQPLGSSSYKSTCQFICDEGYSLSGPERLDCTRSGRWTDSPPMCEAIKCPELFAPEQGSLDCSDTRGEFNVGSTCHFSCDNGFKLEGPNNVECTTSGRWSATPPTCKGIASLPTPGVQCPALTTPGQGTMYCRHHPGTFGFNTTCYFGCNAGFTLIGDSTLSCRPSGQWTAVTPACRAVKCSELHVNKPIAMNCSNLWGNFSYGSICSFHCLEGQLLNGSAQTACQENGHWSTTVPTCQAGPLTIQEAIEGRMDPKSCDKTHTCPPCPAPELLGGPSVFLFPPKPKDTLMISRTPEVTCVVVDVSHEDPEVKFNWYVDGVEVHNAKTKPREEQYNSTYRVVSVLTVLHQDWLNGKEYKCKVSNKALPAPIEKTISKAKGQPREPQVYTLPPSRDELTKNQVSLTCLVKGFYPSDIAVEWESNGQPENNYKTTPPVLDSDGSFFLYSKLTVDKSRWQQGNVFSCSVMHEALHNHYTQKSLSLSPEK

H-DVEWVDVSY-OH [Pstar, H2N-DVEWVDVSY-COOH]
IC50 (human P-selectin/IgG-Fc): 7 µM

B1: human P-selectin binding peptide H2N-…-COOH (Pstar) (peptide)
peptide: DVEWVDVSY
modifications: not checked
IC50 [1]: 7 µM

B2: P500 liposomes: liposomes carrying 500 DSPE-PEG3400-(125I)-Pstar conjugates per liposome (other)
peptide: DVEWVDVSY
modifications: not fully specified; also: 125I label (ICl method)
notes: About 70 nm EYPC/cholesterol liposome; The peptide-PEG-lipid conjugate is anchored in its surface together with DSPE-PEG2000 (5 mole % in total); also called LP500
IC50 [2]: 0.00034 µM
relative transfection (glucocorticoid responsive element-driven Firefly luciferase, corrected by Renilla luciferase) in CHO-P cells [3]: 5 fold

B3: P100 liposomes: liposomes carrying 100 DSPE-PEG3400-(125I)-Pstar conjugates per liposome (other)
peptide: DVEWVDVSY
modifications: not fully specified; also: 125I label (ICl method)
notes: About 70 nm EYPC/cholesterol liposome; The peptide-PEG-lipid conjugate is anchored in its surface together with DSPE-PEG2000 (5 mole % in total); also called LP100
IC50 [2]: 0.00078 µM

From patent US8003596B2, “P-selectin targeting ligand and compositions thereof” (Astellas Pharma Inc., priority 2003, dated 2011)
